Measurements published in article PMC9239117.

Assays:
[1] = molecular target: Human metapneumovirus (HMPV) phosphoprotein (P), strain CAN97-83 (Human metapneumovirus (strain CAN97-83)) (UniProt Q8B9Q8)
[2] = molecular target: Human metapneumovirus (HMPV) phosphoprotein (P), strain CAN97-83 (Human metapneumovirus (strain CAN97-83)) (UniProt Q8B9Q8); remark: listed apart in the source

Molecule | turbidity assay, absorbance at 395 nm against time (5-min intervals), N^0-P (40 uM) with anion exchange-purified P (40 uM), against N^0-P alone (peak above 0.6) (absorbance at 395 nm) [1] | turbidity assay, absorbance at 395 nm against time (5-min intervals), N-RNA (40 uM) with heparin-purified P (40 uM), against N-RNA alone (absorbance at 395 nm) [2]
HMPV N^0-P construct: full-length N (1 to 394) fused to a P peptide (1 to 40) (from UniProt Q6WBA1 1-394; Q8B9Q8 1-40) | 0.3 | 
HMPV wild-type nucleoprotein N, RNA-bound rings (N-RNA), strain CAN97-83 (natural protein) MSLQGIHLSDLSYKHAILKESQYTIKRDVGTTTAVTPSSLQQEITLLCGEILYAKHADYKYAAEIGIQYISTALGSERVQQILRNSGSEVQVVLTRTYSLGKVKNNKGEDLQMLDIHGVEKSWVEEIDKEARKTMATLLKESSGNIPQNQRPSAPDTPIILLCVGALIFTKLASTIEVGLETTVRRANRVLSDALKRYPRMDIPKIARSFYDLFEQKVYYRSLFIEYGKALGSSSTGSKAESLFVNIFMQAYGAGQTMLRWGVIARSSNNIMLGHVSVQAELKQVTEVYDLVREMGPESGLLHLRQSPKAGLLSLANCPNFASVVLGNASGLGIIGMYRGRVPNTELFSAAESYAKSLKESNKINFSSLGLTDEEKEAAEHFLNVSDDSQNDYE |  | 0.2
